Columns and labels:
[1] = molecular target: FITC - UL56 46-55 (HHV2) (Human herpesvirus 2 (strain HG52) (HHV-2))
[2] = molecular target: FITC - ARRB2 370-379 (Human) (Homo Sapiens)
[3] = molecular target: centrosomal protein of 55 kDa EABR domain (CEP55 EABR) (human) (UniProt Q53EZ4)
[4] = molecular target: C terminal domain of polyadenylate-binding protein 1 (human) (UniProt P11940)
[5] = molecular target: N-terminal domain of clathrin (CLTC NTD) (human) (UniProt Q00610)
[6] = molecular target: V domain of programmed cell death 6-interacting protein (ALIX V) (human) (UniProt Q8WUM4)
[7] = molecular target: programmed cell death 6-interacting protein (ALIX) V domain (human)
[8] = molecular target: FITC - gag 493-502 (HIV1) (Human immunodeficiency virus type 1 group N (isolate YBF30) (HIV-1))
[9] = molecular target: E3 ubiquitin-protein ligase NEDD4 WW4 domain (human)
[10] = molecular target: E3 ubiquitin-protein ligase NEDD4 WW2 domain (human)
[11] = molecular target: FITC - PDCD6IP 797-809 (Human) (Homo Sapiens)

Chain of N-terminal domain of clathrin (CLTC NTD) (human) (Q00610 whole entry, the tested form may be a part): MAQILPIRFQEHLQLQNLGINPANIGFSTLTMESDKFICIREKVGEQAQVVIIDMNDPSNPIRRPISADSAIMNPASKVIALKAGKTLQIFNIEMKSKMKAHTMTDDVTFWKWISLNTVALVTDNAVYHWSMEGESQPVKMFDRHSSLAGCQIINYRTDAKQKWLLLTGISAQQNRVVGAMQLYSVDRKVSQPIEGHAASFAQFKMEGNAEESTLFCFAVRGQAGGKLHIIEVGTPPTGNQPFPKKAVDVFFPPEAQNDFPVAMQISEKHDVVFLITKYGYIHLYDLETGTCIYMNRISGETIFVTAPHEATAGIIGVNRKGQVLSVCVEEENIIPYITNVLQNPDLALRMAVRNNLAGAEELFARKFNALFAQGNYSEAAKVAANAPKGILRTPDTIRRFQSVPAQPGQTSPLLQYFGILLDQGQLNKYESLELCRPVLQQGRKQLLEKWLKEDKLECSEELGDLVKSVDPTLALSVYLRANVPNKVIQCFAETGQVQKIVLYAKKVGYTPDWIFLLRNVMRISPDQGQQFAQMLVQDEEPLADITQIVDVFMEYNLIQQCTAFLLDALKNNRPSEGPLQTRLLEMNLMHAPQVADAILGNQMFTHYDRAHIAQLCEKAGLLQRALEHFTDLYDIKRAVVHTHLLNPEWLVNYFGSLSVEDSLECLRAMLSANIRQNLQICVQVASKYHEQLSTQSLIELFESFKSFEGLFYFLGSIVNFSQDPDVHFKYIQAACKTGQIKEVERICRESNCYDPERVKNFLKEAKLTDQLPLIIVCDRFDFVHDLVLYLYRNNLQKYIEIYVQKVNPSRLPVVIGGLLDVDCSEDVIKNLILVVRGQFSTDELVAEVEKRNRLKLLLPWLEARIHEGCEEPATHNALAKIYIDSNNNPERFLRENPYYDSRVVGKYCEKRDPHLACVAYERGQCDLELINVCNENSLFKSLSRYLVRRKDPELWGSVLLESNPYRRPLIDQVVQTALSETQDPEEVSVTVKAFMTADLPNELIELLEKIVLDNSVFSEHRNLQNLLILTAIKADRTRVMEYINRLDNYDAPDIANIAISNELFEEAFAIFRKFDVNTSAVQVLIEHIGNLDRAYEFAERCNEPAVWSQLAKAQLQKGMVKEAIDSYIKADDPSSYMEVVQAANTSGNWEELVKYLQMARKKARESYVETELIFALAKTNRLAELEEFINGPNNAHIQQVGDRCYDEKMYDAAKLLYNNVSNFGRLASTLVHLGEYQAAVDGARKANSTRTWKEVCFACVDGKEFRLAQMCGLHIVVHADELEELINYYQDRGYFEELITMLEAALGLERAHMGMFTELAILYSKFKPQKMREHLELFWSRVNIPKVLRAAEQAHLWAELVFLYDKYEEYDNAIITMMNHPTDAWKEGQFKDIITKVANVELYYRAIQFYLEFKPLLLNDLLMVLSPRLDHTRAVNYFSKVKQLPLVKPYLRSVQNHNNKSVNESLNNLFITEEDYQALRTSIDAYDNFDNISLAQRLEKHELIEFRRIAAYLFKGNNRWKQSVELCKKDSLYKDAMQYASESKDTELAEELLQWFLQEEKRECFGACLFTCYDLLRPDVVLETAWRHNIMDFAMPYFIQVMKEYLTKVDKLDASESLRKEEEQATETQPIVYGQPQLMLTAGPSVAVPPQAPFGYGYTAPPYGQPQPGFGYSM
Chain of V domain of programmed cell death 6-interacting protein (ALIX V) (human) (Q8WUM4 whole entry): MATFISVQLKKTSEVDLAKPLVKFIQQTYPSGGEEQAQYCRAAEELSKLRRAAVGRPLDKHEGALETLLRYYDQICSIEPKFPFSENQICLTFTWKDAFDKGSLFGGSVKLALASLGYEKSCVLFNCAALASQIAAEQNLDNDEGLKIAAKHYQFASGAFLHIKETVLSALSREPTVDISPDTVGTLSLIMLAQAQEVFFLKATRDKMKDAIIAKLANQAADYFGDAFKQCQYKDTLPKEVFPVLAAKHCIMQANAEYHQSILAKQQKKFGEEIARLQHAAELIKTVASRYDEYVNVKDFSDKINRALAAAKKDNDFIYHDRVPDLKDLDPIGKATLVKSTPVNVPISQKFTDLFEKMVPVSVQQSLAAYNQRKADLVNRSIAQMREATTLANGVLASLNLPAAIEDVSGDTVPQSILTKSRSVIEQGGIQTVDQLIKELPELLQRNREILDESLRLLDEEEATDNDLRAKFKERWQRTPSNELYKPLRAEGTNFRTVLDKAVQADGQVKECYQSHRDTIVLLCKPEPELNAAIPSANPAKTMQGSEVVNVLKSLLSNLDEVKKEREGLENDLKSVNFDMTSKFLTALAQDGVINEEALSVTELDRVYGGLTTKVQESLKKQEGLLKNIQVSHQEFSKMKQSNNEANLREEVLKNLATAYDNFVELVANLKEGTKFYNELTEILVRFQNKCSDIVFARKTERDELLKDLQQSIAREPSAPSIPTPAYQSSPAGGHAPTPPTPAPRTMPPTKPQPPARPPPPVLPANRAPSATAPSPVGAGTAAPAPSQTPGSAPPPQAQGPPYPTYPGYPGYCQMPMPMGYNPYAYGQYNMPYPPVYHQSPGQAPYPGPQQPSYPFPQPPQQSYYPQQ
Chain of centrosomal protein of 55 kDa EABR domain (CEP55 EABR) (human) (Q53EZ4 whole entry, the tested form may be a part): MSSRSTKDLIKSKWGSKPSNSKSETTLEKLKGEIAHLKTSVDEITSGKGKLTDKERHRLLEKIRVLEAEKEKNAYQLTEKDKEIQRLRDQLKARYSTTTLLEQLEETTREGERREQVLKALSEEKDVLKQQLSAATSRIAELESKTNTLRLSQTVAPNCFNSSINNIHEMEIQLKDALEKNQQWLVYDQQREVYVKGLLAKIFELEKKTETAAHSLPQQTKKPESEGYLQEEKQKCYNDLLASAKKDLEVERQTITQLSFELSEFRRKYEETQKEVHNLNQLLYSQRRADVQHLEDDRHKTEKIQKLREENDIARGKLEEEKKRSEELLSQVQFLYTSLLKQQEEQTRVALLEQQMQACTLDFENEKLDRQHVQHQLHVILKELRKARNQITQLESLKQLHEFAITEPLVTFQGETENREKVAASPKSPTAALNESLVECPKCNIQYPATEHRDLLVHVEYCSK
Chain of C terminal domain of polyadenylate-binding protein 1 (human) (P11940 544-623): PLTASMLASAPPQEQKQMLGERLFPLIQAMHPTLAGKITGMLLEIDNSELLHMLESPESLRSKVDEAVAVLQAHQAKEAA
Chain of E3 ubiquitin-protein ligase NEDD4 WW2 domain (human) (P46934 whole entry, the tested form may be a part): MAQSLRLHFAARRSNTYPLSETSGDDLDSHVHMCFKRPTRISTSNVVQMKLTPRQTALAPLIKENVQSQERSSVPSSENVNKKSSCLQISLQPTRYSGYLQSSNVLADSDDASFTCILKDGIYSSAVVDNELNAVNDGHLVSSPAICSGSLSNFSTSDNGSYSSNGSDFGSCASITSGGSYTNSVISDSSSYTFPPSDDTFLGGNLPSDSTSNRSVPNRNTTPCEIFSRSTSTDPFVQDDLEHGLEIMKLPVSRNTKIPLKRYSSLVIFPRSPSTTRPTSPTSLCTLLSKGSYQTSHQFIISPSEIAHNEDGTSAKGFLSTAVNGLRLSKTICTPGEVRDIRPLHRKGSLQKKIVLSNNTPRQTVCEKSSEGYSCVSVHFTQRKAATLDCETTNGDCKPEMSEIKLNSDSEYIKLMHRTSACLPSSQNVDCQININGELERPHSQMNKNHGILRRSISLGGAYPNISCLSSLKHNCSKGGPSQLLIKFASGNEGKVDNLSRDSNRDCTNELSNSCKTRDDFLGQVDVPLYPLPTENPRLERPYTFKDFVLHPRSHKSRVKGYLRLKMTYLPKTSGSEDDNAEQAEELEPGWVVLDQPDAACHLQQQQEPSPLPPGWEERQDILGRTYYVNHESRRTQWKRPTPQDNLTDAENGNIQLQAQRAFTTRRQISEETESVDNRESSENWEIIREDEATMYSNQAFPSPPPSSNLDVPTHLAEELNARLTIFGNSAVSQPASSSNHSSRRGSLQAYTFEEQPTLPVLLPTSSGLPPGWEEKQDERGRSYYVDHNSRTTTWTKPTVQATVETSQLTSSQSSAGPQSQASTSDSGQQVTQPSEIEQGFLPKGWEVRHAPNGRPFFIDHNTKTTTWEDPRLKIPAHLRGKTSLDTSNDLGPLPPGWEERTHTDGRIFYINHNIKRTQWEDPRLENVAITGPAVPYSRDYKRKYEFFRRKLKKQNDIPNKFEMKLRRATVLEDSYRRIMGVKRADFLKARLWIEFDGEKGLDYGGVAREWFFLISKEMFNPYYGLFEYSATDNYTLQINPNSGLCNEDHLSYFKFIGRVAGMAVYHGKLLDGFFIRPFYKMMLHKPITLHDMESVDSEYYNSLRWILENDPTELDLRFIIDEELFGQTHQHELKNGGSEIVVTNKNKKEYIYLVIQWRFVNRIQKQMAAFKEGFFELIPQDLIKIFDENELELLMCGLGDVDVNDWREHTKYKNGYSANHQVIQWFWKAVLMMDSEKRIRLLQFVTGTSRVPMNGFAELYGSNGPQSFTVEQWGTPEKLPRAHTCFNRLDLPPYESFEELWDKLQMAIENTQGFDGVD
Chain of E3 ubiquitin-protein ligase NEDD4 WW4 domain (human) (P46934 whole entry, the tested form may be a part): as above

With “E3 ubiquitin-protein ligase NEDD4 WW2 domain (domain or fragment)” as the substance, how does the Kd [1] read?
Its Kd is 16 µM.

For “E3 ubiquitin-protein ligase NEDD4 WW4 domain (domain or fragment)”, which Kd [1] is on record?
Its Kd is 82 µM.

How did the Kd [2] turn out when “N-terminal domain of clathrin (CLTC NTD) (from UniProt Q00610 1-1675) (domain or fragment)” was run?
Its Kd is 26 µM.

With NP 602-617 (REBOV) (peptide) as the substance, how does the Kd [3] read?
Its Kd is 2.18 µM.

With N_(2-17) (BeV) peptide as the substance, how does the fold weaker affinity than PAIP2(108-123) [4] read?
The fold weaker affinity than PAIP2(108-123) was 10 fold.

How did the Kd [5] turn out when Nsp3 1765-1780 (EEEV) (peptide) was run?
Its Kd is 28 µM.

How did the Kd [6] turn out when Nsp4 118-142 (BAV) (peptide) was run?
Its Kd is 160 µM.

How did the Kd [6] turn out when Nsp4 119-134 (BAV) (peptide) was run?
Its Kd is 101 µM.

For Nsp4_(118-142) (BAV) peptide, which fold weaker affinity than the syntenin-2 peptide [7] is on record?
The fold weaker affinity than the syntenin-2 peptide was > 300 fold.

How did the Kd [3] turn out when P 177-192 (RABV) (peptide) was run?
The Kd was 22.3 µM.

For RdRp 1840-1855 (SVV) (peptide), which Kd [5] is on record?
Its Kd is 800 µM.

Which Kd [8] does the source give for “V domain of programmed cell death 6-interacting protein (ALIX V) (from UniProt Q8WUM4 1-868) (domain or fragment)” here?
The Kd was 2.6 µM.

For VP40 1-20 (SEBOV) (peptide), which Kd [9] is on record?
Its Kd is 68 µM.

And the Kd [10]?
The Kd was 22 µM.

How did the Kd [11] turn out when “centrosomal protein of 55 kDa EABR domain (CEP55 EABR) (from UniProt Q53EZ4 1-464) (domain or fragment)” was run?
Its Kd is 0.31 µM.

How did the Kd [5] turn out when mu-NS 705-720 (MRV1) (peptide) was run?
Its Kd is 34 µM.

Source: paper PMC10132805
